This is an account of results in patent US12679878B2, “CRF2 receptor agonists and their use in therapy” (SANOFI, priority 2020, dated 2026).

Starred links: 1 amine or outer side, 2 acyl side, 3 side chain; linkers in the order of their positions; H or OH if unused. Non-standard residues stand in square brackets, D forms with d. Groups on a side chain read outwards from the residue. No end group written: not given here. *: point of attachment. C20 diacid = O=C(O)CCCCCCCCCCCCCCCCCCC(=O)*; C18 diacid = O=C(O)CCCCCCCCCCCCCCCCC(=O)*; γGlu = O=C(O)[C@H](CCC(=O)[*:2])N[*:1]; AEEA = NCCOCCOCC(=O)O; Aib = CC(C)(N)C(=O)O

In this experiment the target is rat CRF2R α receptor (rat, UniProt P47866 20-411). Nature of the experiment: cell-based or functional assay.
Chain of rat CRF2R α receptor (P47866 20-411): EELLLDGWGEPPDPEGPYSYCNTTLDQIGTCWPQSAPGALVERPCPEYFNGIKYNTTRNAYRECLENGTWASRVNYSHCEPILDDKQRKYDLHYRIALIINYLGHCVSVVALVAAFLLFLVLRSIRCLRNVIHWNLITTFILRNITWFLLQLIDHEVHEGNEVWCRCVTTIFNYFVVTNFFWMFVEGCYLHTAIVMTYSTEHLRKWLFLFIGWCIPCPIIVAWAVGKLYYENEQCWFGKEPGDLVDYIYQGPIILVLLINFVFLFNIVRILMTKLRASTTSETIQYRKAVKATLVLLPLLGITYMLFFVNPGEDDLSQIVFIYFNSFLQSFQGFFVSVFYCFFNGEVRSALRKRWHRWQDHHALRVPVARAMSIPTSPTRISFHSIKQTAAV

B1: peptide of SEQ ID NO: 162 (peptide)
peptide: Ac-IVLSLD[dV]PIELK([AEEA-AEEA-γGlu-C18 diacid])QILLEQERQK[Aib]QREQAEKNKQILEQV-NH2
SMILES: CC[C@H](C)[C@H](NC(C)=O)C(=O)N[C@H](C(=O)N[C@@H](CC(C)C)C(=O)N[C@@H](CO)C(=O)N[C@@H](CC(C)C)C(=O)N[C@@H](CC(=O)O)C(=O)N[C@@H](C(=O)N1CCC[C@H]1C(=O)N[C@H](C(=O)N[C@@H](CCC(=O)O)C(=O)N[C@@H](CC(C)C)C(=O)N[C@@H](CCCCNC(=O)COCCOCCNC(=O)COCCOCCNC(=O)CC[C@H](NC(=O)CCCCCCCCCCCCCCCCC(=O)O)C(=O)O)C(=O)N[C@@H](CCC(N)=O)C(=O)N[C@H](C(=O)N[C@@H](CC(C)C)C(=O)N[C@@H](CC(C)C)C(=O)N[C@@H](CCC(=O)O)C(=O)N[C@@H](CCC(N)=O)C(=O)N[C@@H](CCC(=O)O)C(=O)N[C@@H](CCCNC(=N)N)C(=O)N[C@@H](CCC(N)=O)C(=O)N[C@@H](CCCCN)C(=O)NC(C)(C)C(=O)N[C@@H](CCC(N)=O)C(=O)N[C@@H](CCCNC(=N)N)C(=O)N[C@@H](CCC(=O)O)C(=O)N[C@@H](CCC(N)=O)C(=O)N[C@@H](C)C(=O)N[C@@H](CCC(=O)O)C(=O)N[C@@H](CCCCN)C(=O)N[C@@H](CC(N)=O)C(=O)N[C@@H](CCCCN)C(=O)N[C@@H](CCC(N)=O)C(=O)N[C@H](C(=O)N[C@@H](CC(C)C)C(=O)N[C@@H](CCC(=O)O)C(=O)N[C@@H](CCC(N)=O)C(=O)N[C@H](C(N)=O)C(C)C)[C@@H](C)CC)[C@@H](C)CC)[C@@H](C)CC)C(C)C)C(C)C
Take B1: the “EC50 [nM], 0% HSA (cAMP, A7R5 cells)” value was 48.6 nM.

B2: peptide of SEQ ID NO: 163 (peptide)
peptide: Ac-IVLSLD[dV]PIHLK([AEEA-AEEA-γGlu-C18 diacid])QILLEQERQK[Aib]QREQAEKNKQILEQV-NH2
B2: the “EC50 [nM], 0% HSA (cAMP, A7R5 cells)” value was found to be 1.5 nM.

B3: peptide of SEQ ID NO: 158 (peptide)
peptide: Ac-IVLSLD[dV]PIKLK([AEEA-AEEA-γGlu-C18 diacid])QILLEQERQK[Aib]QREQAEKNKQILEQV-NH2
SMILES: CC[C@H](C)[C@H](NC(C)=O)C(=O)N[C@H](C(=O)N[C@@H](CC(C)C)C(=O)N[C@@H](CO)C(=O)N[C@@H](CC(C)C)C(=O)N[C@@H](CC(=O)O)C(=O)N[C@@H](C(=O)N1CCC[C@H]1C(=O)N[C@H](C(=O)N[C@@H](CCCCN)C(=O)N[C@@H](CC(C)C)C(=O)N[C@@H](CCCCNC(=O)COCCOCCNC(=O)COCCOCCNC(=O)CC[C@H](NC(=O)CCCCCCCCCCCCCCCCC(=O)O)C(=O)O)C(=O)N[C@@H](CCC(N)=O)C(=O)N[C@H](C(=O)N[C@@H](CC(C)C)C(=O)N[C@@H](CC(C)C)C(=O)N[C@@H](CCC(=O)O)C(=O)N[C@@H](CCC(N)=O)C(=O)N[C@@H](CCC(=O)O)C(=O)N[C@@H](CCCNC(=N)N)C(=O)N[C@@H](CCC(N)=O)C(=O)N[C@@H](CCCCN)C(=O)NC(C)(C)C(=O)N[C@@H](CCC(N)=O)C(=O)N[C@@H](CCCNC(=N)N)C(=O)N[C@@H](CCC(=O)O)C(=O)N[C@@H](CCC(N)=O)C(=O)N[C@@H](C)C(=O)N[C@@H](CCC(=O)O)C(=O)N[C@@H](CCCCN)C(=O)N[C@@H](CC(N)=O)C(=O)N[C@@H](CCCCN)C(=O)N[C@@H](CCC(N)=O)C(=O)N[C@H](C(=O)N[C@@H](CC(C)C)C(=O)N[C@@H](CCC(=O)O)C(=O)N[C@@H](CCC(N)=O)C(=O)N[C@H](C(N)=O)C(C)C)[C@@H](C)CC)[C@@H](C)CC)[C@@H](C)CC)C(C)C)C(C)C
In the case of B3, the “EC50 [nM], 0% HSA (cAMP, A7R5 cells)” value turned out to be 5.29 nM.

B4: peptide of SEQ ID NO: 182 (peptide)
peptide: IVLSLD[dV]PIKLK(C18 diacid)QILLKQERQK[Aib]QREQAEKNKQILAQV-NH2
modifications: N-terminus assumed
SMILES: CC[C@H](C)[C@H](N)C(=O)N[C@H](C(=O)N[C@@H](CC(C)C)C(=O)N[C@@H](CO)C(=O)N[C@@H](CC(C)C)C(=O)N[C@@H](CC(=O)O)C(=O)N[C@@H](C(=O)N1CCC[C@H]1C(=O)N[C@H](C(=O)N[C@@H](CCCCN)C(=O)N[C@@H](CC(C)C)C(=O)N[C@@H](CCCCNC(=O)CCCCCCCCCCCCCCCCC(=O)O)C(=O)N[C@@H](CCC(N)=O)C(=O)N[C@H](C(=O)N[C@@H](CC(C)C)C(=O)N[C@@H](CC(C)C)C(=O)N[C@@H](CCCCN)C(=O)N[C@@H](CCC(N)=O)C(=O)N[C@@H](CCC(=O)O)C(=O)N[C@@H](CCCNC(=N)N)C(=O)N[C@@H](CCC(N)=O)C(=O)N[C@@H](CCCCN)C(=O)NC(C)(C)C(=O)N[C@@H](CCC(N)=O)C(=O)N[C@@H](CCCNC(=N)N)C(=O)N[C@@H](CCC(=O)O)C(=O)N[C@@H](CCC(N)=O)C(=O)N[C@@H](C)C(=O)N[C@@H](CCC(=O)O)C(=O)N[C@@H](CCCCN)C(=O)N[C@@H](CC(N)=O)C(=O)N[C@@H](CCCCN)C(=O)N[C@@H](CCC(N)=O)C(=O)N[C@H](C(=O)N[C@@H](CC(C)C)C(=O)N[C@@H](C)C(=O)N[C@@H](CCC(N)=O)C(=O)N[C@H](C(N)=O)C(C)C)[C@@H](C)CC)[C@@H](C)CC)[C@@H](C)CC)C(C)C)C(C)C
For the molecule B4, the “EC50 [nM], 0% HSA (cAMP, A7R5 cells)” value stood at 0.59 nM.

B5: peptide of SEQ ID NO: 159 (peptide)
peptide: Ac-IVLSLD[dV]PIKLK([AEEA-AEEA-γGlu-C18 diacid])QILLEQERQE[Aib]QREQAEKNKQILEQV-NH2
SMILES: CC[C@H](C)[C@H](NC(C)=O)C(=O)N[C@H](C(=O)N[C@@H](CC(C)C)C(=O)N[C@@H](CO)C(=O)N[C@@H](CC(C)C)C(=O)N[C@@H](CC(=O)O)C(=O)N[C@@H](C(=O)N1CCC[C@H]1C(=O)N[C@H](C(=O)N[C@@H](CCCCN)C(=O)N[C@@H](CC(C)C)C(=O)N[C@@H](CCCCNC(=O)COCCOCCNC(=O)COCCOCCNC(=O)CC[C@H](NC(=O)CCCCCCCCCCCCCCCCC(=O)O)C(=O)O)C(=O)N[C@@H](CCC(N)=O)C(=O)N[C@H](C(=O)N[C@@H](CC(C)C)C(=O)N[C@@H](CC(C)C)C(=O)N[C@@H](CCC(=O)O)C(=O)N[C@@H](CCC(N)=O)C(=O)N[C@@H](CCC(=O)O)C(=O)N[C@@H](CCCNC(=N)N)C(=O)N[C@@H](CCC(N)=O)C(=O)N[C@@H](CCC(=O)O)C(=O)NC(C)(C)C(=O)N[C@@H](CCC(N)=O)C(=O)N[C@@H](CCCNC(=N)N)C(=O)N[C@@H](CCC(=O)O)C(=O)N[C@@H](CCC(N)=O)C(=O)N[C@@H](C)C(=O)N[C@@H](CCC(=O)O)C(=O)N[C@@H](CCCCN)C(=O)N[C@@H](CC(N)=O)C(=O)N[C@@H](CCCCN)C(=O)N[C@@H](CCC(N)=O)C(=O)N[C@H](C(=O)N[C@@H](CC(C)C)C(=O)N[C@@H](CCC(=O)O)C(=O)N[C@@H](CCC(N)=O)C(=O)N[C@H](C(N)=O)C(C)C)[C@@H](C)CC)[C@@H](C)CC)[C@@H](C)CC)C(C)C)C(C)C
For B5, the “EC50 [nM], 0% HSA (cAMP, A7R5 cells)” value is 15.6 nM.

B6: peptide of SEQ ID NO: 173 (peptide)
peptide: IVLSLD[dV]PIKLK([AEEA-AEEA-γGlu-C20 diacid])QILLKQERQK[Aib]QREQAEKNKQILAQV-NH2
modifications: N-terminus assumed
SMILES: CC[C@H](C)[C@H](N)C(=O)N[C@H](C(=O)N[C@@H](CC(C)C)C(=O)N[C@@H](CO)C(=O)N[C@@H](CC(C)C)C(=O)N[C@@H](CC(=O)O)C(=O)N[C@@H](C(=O)N1CCC[C@H]1C(=O)N[C@H](C(=O)N[C@@H](CCCCN)C(=O)N[C@@H](CC(C)C)C(=O)N[C@@H](CCCCNC(=O)COCCOCCNC(=O)COCCOCCNC(=O)CC[C@H](NC(=O)CCCCCCCCCCCCCCCCCCC(=O)O)C(=O)O)C(=O)N[C@@H](CCC(N)=O)C(=O)N[C@H](C(=O)N[C@@H](CC(C)C)C(=O)N[C@@H](CC(C)C)C(=O)N[C@@H](CCCCN)C(=O)N[C@@H](CCC(N)=O)C(=O)N[C@@H](CCC(=O)O)C(=O)N[C@@H](CCCNC(=N)N)C(=O)N[C@@H](CCC(N)=O)C(=O)N[C@@H](CCCCN)C(=O)NC(C)(C)C(=O)N[C@@H](CCC(N)=O)C(=O)N[C@@H](CCCNC(=N)N)C(=O)N[C@@H](CCC(=O)O)C(=O)N[C@@H](CCC(N)=O)C(=O)N[C@@H](C)C(=O)N[C@@H](CCC(=O)O)C(=O)N[C@@H](CCCCN)C(=O)N[C@@H](CC(N)=O)C(=O)N[C@@H](CCCCN)C(=O)N[C@@H](CCC(N)=O)C(=O)N[C@H](C(=O)N[C@@H](CC(C)C)C(=O)N[C@@H](C)C(=O)N[C@@H](CCC(N)=O)C(=O)N[C@H](C(N)=O)C(C)C)[C@@H](C)CC)[C@@H](C)CC)[C@@H](C)CC)C(C)C)C(C)C
As for B6, the “EC50 [nM], 0% HSA (cAMP, A7R5 cells)” value was determined as 0.83 nM.

B7: peptide of SEQ ID NO: 174 (peptide)
peptide: IVLSLD[dV]PIKLK([AEEA-AEEA-γGlu-γGlu-C18 diacid])QILLKQARQK[Aib]QRAQAEKNKRILERV-NH2
modifications: N-terminus assumed
SMILES: CC[C@H](C)[C@H](N)C(=O)N[C@H](C(=O)N[C@@H](CC(C)C)C(=O)N[C@@H](CO)C(=O)N[C@@H](CC(C)C)C(=O)N[C@@H](CC(=O)O)C(=O)N[C@@H](C(=O)N1CCC[C@H]1C(=O)N[C@H](C(=O)N[C@@H](CCCCN)C(=O)N[C@@H](CC(C)C)C(=O)N[C@@H](CCCCNC(=O)COCCOCCNC(=O)COCCOCCNC(=O)CC[C@H](NC(=O)CC[C@H](NC(=O)CCCCCCCCCCCCCCCCC(=O)O)C(=O)O)C(=O)O)C(=O)N[C@@H](CCC(N)=O)C(=O)N[C@H](C(=O)N[C@@H](CC(C)C)C(=O)N[C@@H](CC(C)C)C(=O)N[C@@H](CCCCN)C(=O)N[C@@H](CCC(N)=O)C(=O)N[C@@H](C)C(=O)N[C@@H](CCCNC(=N)N)C(=O)N[C@@H](CCC(N)=O)C(=O)N[C@@H](CCCCN)C(=O)NC(C)(C)C(=O)N[C@@H](CCC(N)=O)C(=O)N[C@@H](CCCNC(=N)N)C(=O)N[C@@H](C)C(=O)N[C@@H](CCC(N)=O)C(=O)N[C@@H](C)C(=O)N[C@@H](CCC(=O)O)C(=O)N[C@@H](CCCCN)C(=O)N[C@@H](CC(N)=O)C(=O)N[C@@H](CCCCN)C(=O)N[C@@H](CCCNC(=N)N)C(=O)N[C@H](C(=O)N[C@@H](CC(C)C)C(=O)N[C@@H](CCC(=O)O)C(=O)N[C@@H](CCCNC(=N)N)C(=O)N[C@H](C(N)=O)C(C)C)[C@@H](C)CC)[C@@H](C)CC)[C@@H](C)CC)C(C)C)C(C)C
For the molecule B7, the “EC50 [nM], 0% HSA (cAMP, A7R5 cells)” value is 0.42 nM.
